The target in test [1] is T1, LukGH_H19.
T1 chain 1: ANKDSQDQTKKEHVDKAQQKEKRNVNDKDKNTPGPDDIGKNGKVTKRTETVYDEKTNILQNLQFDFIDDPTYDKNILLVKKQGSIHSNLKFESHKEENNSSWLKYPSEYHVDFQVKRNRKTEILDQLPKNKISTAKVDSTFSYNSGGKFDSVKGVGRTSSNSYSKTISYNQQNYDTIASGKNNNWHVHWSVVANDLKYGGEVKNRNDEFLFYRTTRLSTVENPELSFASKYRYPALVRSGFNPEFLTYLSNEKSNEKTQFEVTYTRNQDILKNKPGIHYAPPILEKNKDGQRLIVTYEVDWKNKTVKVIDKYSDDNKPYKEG
T1 chain 2: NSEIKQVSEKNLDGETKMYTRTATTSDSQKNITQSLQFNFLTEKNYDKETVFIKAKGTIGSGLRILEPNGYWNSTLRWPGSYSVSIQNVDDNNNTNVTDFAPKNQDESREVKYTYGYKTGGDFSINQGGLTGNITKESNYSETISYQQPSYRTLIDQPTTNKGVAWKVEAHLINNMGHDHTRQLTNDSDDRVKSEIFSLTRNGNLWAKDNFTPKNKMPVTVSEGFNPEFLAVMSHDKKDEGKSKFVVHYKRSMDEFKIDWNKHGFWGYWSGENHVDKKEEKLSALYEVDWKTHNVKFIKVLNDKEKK
Nature of the test: ForteBio. In general terms: BLI is a label-free optical method that tracks binding on a fibre tip over time.

The target in test [2] is T2, LukGH_MSHR1132.
T2 chain 1: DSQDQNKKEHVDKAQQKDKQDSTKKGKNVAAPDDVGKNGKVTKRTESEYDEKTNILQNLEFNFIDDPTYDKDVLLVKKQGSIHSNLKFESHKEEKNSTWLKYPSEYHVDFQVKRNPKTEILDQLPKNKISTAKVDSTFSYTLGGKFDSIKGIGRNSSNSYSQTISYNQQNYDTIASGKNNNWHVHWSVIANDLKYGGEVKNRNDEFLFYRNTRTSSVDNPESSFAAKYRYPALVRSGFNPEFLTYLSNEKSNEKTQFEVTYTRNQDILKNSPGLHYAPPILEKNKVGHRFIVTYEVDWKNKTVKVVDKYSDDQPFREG
T2 chain 2: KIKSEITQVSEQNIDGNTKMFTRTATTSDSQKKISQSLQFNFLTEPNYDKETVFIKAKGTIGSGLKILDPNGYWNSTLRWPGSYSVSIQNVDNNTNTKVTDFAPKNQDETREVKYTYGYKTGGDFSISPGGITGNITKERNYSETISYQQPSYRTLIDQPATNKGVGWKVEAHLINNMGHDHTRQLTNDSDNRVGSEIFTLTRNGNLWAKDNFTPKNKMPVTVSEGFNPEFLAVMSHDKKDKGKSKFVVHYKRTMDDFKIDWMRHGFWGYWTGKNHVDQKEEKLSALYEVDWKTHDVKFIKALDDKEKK
Description: ForteBio.

The target in test [3] is T3, LukG_TCH1516.
T3 chain: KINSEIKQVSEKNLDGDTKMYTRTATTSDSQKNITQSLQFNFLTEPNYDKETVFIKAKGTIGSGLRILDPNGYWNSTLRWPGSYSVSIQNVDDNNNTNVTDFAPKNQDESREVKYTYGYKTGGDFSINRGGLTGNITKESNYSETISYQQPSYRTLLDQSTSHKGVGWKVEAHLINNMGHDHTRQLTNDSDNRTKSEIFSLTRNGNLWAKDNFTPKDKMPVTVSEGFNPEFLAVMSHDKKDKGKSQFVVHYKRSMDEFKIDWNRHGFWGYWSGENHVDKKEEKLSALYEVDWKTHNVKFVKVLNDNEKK
Nature of the test: ForteBio.

Test [4] deals with T4, LukGH_MRSA252.
T4 chain 1: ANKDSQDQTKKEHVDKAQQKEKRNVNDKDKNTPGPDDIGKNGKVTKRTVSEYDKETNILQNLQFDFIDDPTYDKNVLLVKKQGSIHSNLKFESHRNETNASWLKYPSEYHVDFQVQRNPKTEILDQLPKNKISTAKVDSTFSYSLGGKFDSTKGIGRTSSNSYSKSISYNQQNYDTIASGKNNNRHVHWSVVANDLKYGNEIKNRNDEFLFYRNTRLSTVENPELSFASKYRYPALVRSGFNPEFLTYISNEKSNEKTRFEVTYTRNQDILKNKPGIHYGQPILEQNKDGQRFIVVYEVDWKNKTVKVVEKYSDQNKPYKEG
T4 chain 2: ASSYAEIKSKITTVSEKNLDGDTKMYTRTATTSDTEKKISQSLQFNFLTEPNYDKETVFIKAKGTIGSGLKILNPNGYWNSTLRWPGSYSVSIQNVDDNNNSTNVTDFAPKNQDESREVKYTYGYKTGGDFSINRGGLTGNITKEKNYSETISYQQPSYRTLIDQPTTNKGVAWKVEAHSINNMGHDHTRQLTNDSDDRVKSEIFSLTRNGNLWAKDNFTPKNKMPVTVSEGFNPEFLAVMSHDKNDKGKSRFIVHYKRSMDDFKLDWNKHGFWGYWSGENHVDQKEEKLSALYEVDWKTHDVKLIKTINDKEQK
Description: ForteBio.

In test [5] the target is T5, LukGH of S. aureus USA300 TCH1516 (UniProt Q2FFA2 28-351; P21224 30-338).
T5 chain 1: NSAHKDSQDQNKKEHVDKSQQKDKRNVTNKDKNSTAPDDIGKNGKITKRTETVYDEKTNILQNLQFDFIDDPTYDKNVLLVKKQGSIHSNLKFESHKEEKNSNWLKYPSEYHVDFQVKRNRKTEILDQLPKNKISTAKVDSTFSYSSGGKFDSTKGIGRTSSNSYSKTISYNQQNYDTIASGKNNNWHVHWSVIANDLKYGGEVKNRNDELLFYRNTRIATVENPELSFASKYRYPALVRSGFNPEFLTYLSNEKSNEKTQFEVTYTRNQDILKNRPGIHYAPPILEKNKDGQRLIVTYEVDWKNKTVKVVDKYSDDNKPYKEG
T5 chain 2: T3 chain
Nature of the test: ForteBio.

The target in test [6] is T3, LukG_TCH1516. Nature of the test: MSD; Fab.
In test [7] the target is T5, LukGH of S. aureus USA300 TCH1516. Nature of the test: MSD; Fab.

The values below come from patent US20180179267A1 (published 2018).

One may read the Kd as a measure of binding affinity in units of concentration. Low values mean a tighter complex, high ones a looser complex.

B1: AB-31 (antibody, V domains shown)
VH: EVQLVESGGGLVQPGRSLRLSCAASGFTFYDYNMHWVRQAPGKGLEWVSGISWNSGSIAYADSVKGRFTISRDNAKNSLYLQMNSLRAEDTALYYCAKAQKGTAFDIWGQGTMVTVSS
VL: DIQMTQSPSSLSASVGDRVTITCQASQDITNYLNWYQQKPGKAPKLLIYDASNLETGVPSRFSGSGSGTDFTFTISSLQPEDIATYYCQQYPVYPPTFGGGTKVEIKR
For the molecule B1, the Kd in test [1] was 0.24 nM; in test [2], 0.25 nM; in test [3], 9.7 nM; in test [4] it was 0.25 nM; in test [5], less than 0.1 nM; in test [6], 0.12 nM. For the same molecule, the equilibrium dissociation constant (Kd) in test [7] was found to be 0.00052 nM.

B2: AB-30-3 (antibody, V domains shown)
VH: QVQLVQSGAEVKKPGSSVKVSCKASGGTFSSYAISWVRQAPGQGLEWMGVIEPIFGFANYAQKFQGRVTITADESTSTAYMELSSLRSEDTAVYYCARDAGCSSTSCHKDVYFDYWGQGTLVTVSS
VL: DIQMTQSPSSLSASVGDRVTITCRASQSISSYLNWYQQKPGKAPKLLIYGASSLQSGVPSRFSGSGSGTDFTLTISSLQPEDFATYYCQQAYYPPWTFGGGTKVEIKR
Regarding B2, the Kd in test [1] stood at 0.22 nM; in test [2], 0.39 nM; in test [3], 15.5 nM; in test [4] it was 0.28 nM; in test [5], 0.24 nM; in test [6] it was 0.046 nM. The same molecule gave an equilibrium dissociation constant (Kd) in test [7] of 0.0005 nM.
